# According to patent US20200024322A1 (Eli Lilly, published 2020):
# Where a chain is given by its changes, count along the chain named. Numbered stars: 1 amine (or outer) side, 2 acyl side, 3 side chain; on linkers, the order of the positions; unused ones are H or OH. Square brackets hold non-standard residues; d marks the D form. Side chains are listed from the residue outwards. Ends that are not written are not given here. * marks the point of attachment. C18 diacid = O=C(O)CCCCCCCCCCCCCCCCC(=O)*; γGlu = O=C(O)[C@H](CCC(=O)[*:2])N[*:1]; AEEA = NCCOCCOCC(=O)O; Aib = CC(C)(N)C(=O)O
# T1: human GIP receptor (human, UniProt P48546 22-466)
# T1 construct: whole, on cells; also called hGIPR; hGIP-R
# T1 sequence (looked up): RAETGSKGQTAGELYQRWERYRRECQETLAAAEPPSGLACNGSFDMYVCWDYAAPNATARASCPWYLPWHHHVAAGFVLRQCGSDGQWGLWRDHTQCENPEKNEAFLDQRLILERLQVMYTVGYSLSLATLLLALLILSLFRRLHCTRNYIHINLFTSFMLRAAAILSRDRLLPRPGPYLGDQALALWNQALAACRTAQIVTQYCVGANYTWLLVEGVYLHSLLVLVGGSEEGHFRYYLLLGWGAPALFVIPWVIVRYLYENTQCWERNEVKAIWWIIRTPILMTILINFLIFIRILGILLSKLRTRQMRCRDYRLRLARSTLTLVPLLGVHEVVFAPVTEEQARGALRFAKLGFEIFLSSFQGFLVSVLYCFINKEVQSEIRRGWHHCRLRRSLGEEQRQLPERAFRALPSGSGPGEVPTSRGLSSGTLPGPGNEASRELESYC
# B1: Example 229 (peptide)
# peptide: YXEGTXTSDYSXLDEKAQXEFIXYLIEGGPSSGAPPPS
# modifications: Aib2; αMeF(2F)6; αMeL12; K16((2-[2-(2-Amino-ethoxy)-ethoxy]-acetyl)2-(γ-Glu)-CO-(CH2)18-CO2H); Aib19; D-Glu23; C-terminal NH2 (positions counted on this 38-residue peptide)
# B2: Example 232 (peptide)
# peptide: YXEGTXTSDXSIXLDXKAQXEFIXYLIEGGPSSGAPPPS
# modifications: Aib2; αMeF(2F)6; 4Pal10; αMeL13; Orn16; K17((2-[2-(2-Amino-ethoxy)-ethoxy]-acetyl)2-(γ-Glu)-CO-(CH2)16-CO2H); Aib20; D-Glu24; C-terminal NH2
# B3: Example 233 (peptide)
# peptide: B2 peptide
# modifications: Aib2; αMeF(2F)6; 4Pal10; αMeL13; Dab16; K17((2-[2-(2-Amino-ethoxy)-ethoxy]-acetyl)2-(γ-Glu)-CO-(CH2)16-CO2H); Aib20; D-Glu24; C-terminal NH2
# B4: Example 234 (peptide)
# peptide: B2 peptide with X13L
# modifications: Aib2; αMeF(2F)6; 4Pal10; Dab16; K17((2-[2-(2-Amino-ethoxy)-ethoxy]-acetyl)2-(γ-Glu)-CO-(CH2)16-CO2H); Aib20; D-Glu24; C-terminal NH2
# B5: Example 235 (peptide)
# peptide: B2 peptide
# modifications: Aib2; αMeF6; 4Pal10; αMeL13; Dab16; K17((2-[2-(2-Amino-ethoxy)-ethoxy]-acetyl)2-(γ-Glu)-CO-(CH2)16-CO2H); Aib20; D-Glu24; C-terminal NH2
# B6: Example 237 (peptide)
# peptide: B2 peptide with X10A, Y25X
# modifications: Aib2; αMeF(2F)6; αMeL13; Orn16; K17((2-[2-(2-Amino-ethoxy)-ethoxy]-acetyl)2-(γ-Glu)-CO-(CH2)16-CO2H); Aib20; D-Glu24; αMeY25; C-terminal NH2
# B7: Example 246 (peptide)
# peptide: B2 peptide with X10A, E21A, Y25X
# modifications: Aib2; αMeF(2F)6; αMeL13; Orn16; K17((2-[2-(2-Amino-ethoxy)-ethoxy]-acetyl)2-(γ-Glu)-CO-(CH2)16-CO2H); Aib20; D-Glu24; αMeY25; C-terminal NH2
# B8: Example 247 (peptide)
# peptide: B2 peptide with X10Y
# modifications: Aib2; αMeF(2F)6; Aib13; Orn16; K17((2-[2-(2-Amino-ethoxy)-ethoxy]-acetyl)2-(γ-Glu)-CO-(CH2)16-CO2H); Aib20; D-Glu24; C-terminal NH2
# B9: Example 248 (peptide)
# peptide: B2 peptide with X10Y, X13L
# modifications: Aib2; αMeF(2F)6; Orn16; K17((2-[2-(2-Amino-ethoxy)-ethoxy]-acetyl)2-(γ-Glu)-CO-(CH2)16-CO2H); Aib20; D-Glu24; C-terminal NH2
# B10: Example 249 (peptide)
# peptide: B2 peptide with X10Y
# modifications: Aib2; αMeF(2F)6; Nle13; Orn16; K17((2-[2-(2-Amino-ethoxy)-ethoxy]-acetyl)2-(γ-Glu)-CO-(CH2)16-CO2H); Aib20; D-Glu24; C-terminal NH2
# B11: Example 253 (peptide)
# peptide: YXEGTFTSDYSILLDKKAQAAFIEYLIEGGPSSGAPPPS
# modifications: Aib2; K17((2-[2-(2-Amino-ethoxy)-ethoxy]-acetyl)2-(γ-Glu)-CO-(CH2)18-CO2H); C-terminal NH2
# B12: Example 268 (peptide)
# peptide: Y[Aib]EGTFTSDYSILLDEK([AEEA-AEEA-γGlu-C18 diacid])AQ[Aib]AFIEYLIEGGPSSG-NH2
# modifications: N-terminus assumed
# SMILES: CC[C@H](C)[C@H](NC(=O)[C@H](CC(C)C)NC(=O)[C@H](Cc1ccc(O)cc1)NC(=O)[C@H](CCC(=O)O)NC(=O)[C@@H](NC(=O)[C@H](Cc1ccccc1)NC(=O)[C@H](C)NC(=O)C(C)(C)NC(=O)[C@H](CCC(N)=O)NC(=O)[C@H](C)NC(=O)[C@H](CCCCNC(=O)COCCOCCNC(=O)COCCOCCNC(=O)CC[C@H](NC(=O)CCCCCCCCCCCCCCCCC(=O)O)C(=O)O)NC(=O)[C@H](CCC(=O)O)NC(=O)[C@H](CC(=O)O)NC(=O)[C@H](CC(C)C)NC(=O)[C@H](CC(C)C)NC(=O)[C@@H](NC(=O)[C@H](CO)NC(=O)[C@H](Cc1ccc(O)cc1)NC(=O)[C@H](CC(=O)O)NC(=O)[C@H](CO)NC(=O)[C@@H](NC(=O)[C@H](Cc1ccccc1)NC(=O)[C@@H](NC(=O)CNC(=O)[C@H](CCC(=O)O)NC(=O)C(C)(C)NC(=O)[C@@H](N)Cc1ccc(O)cc1)[C@@H](C)O)[C@@H](C)O)[C@@H](C)CC)[C@@H](C)CC)C(=O)N[C@@H](CCC(=O)O)C(=O)NCC(=O)NCC(=O)N1CCC[C@H]1C(=O)N[C@@H](CO)C(=O)N[C@@H](CO)C(=O)NCC(N)=O
# B13: Example 270 (peptide)
# peptide: Y[Aib]EGTFTSDYSILLDKK([AEEA-AEEA-γGlu-C18 diacid])AQ[Aib]EFIEYLIEGGPSSG-NH2
# modifications: N-terminus assumed
# SMILES: CC[C@H](C)[C@H](NC(=O)[C@H](CC(C)C)NC(=O)[C@H](Cc1ccc(O)cc1)NC(=O)[C@H](CCC(=O)O)NC(=O)[C@@H](NC(=O)[C@H](Cc1ccccc1)NC(=O)[C@H](CCC(=O)O)NC(=O)C(C)(C)NC(=O)[C@H](CCC(N)=O)NC(=O)[C@H](C)NC(=O)[C@H](CCCCNC(=O)COCCOCCNC(=O)COCCOCCNC(=O)CC[C@H](NC(=O)CCCCCCCCCCCCCCCCC(=O)O)C(=O)O)NC(=O)[C@H](CCCCN)NC(=O)[C@H](CC(=O)O)NC(=O)[C@H](CC(C)C)NC(=O)[C@H](CC(C)C)NC(=O)[C@@H](NC(=O)[C@H](CO)NC(=O)[C@H](Cc1ccc(O)cc1)NC(=O)[C@H](CC(=O)O)NC(=O)[C@H](CO)NC(=O)[C@@H](NC(=O)[C@H](Cc1ccccc1)NC(=O)[C@@H](NC(=O)CNC(=O)[C@H](CCC(=O)O)NC(=O)C(C)(C)NC(=O)[C@@H](N)Cc1ccc(O)cc1)[C@@H](C)O)[C@@H](C)O)[C@@H](C)CC)[C@@H](C)CC)C(=O)N[C@@H](CCC(=O)O)C(=O)NCC(=O)NCC(=O)N1CCC[C@H]1C(=O)N[C@@H](CO)C(=O)N[C@@H](CO)C(=O)NCC(N)=O
# B14: Example 298 (peptide)
# peptide: Y[Aib]EGTFTSDYSILLDKK([AEEA-AEEA-γGlu-C18 diacid])AQ[Aib]AFVEYLIEGGPSSG-NH2
# modifications: N-terminus assumed
# SMILES: CC[C@H](C)[C@H](NC(=O)[C@H](CC(C)C)NC(=O)[C@H](Cc1ccc(O)cc1)NC(=O)[C@H](CCC(=O)O)NC(=O)[C@@H](NC(=O)[C@H](Cc1ccccc1)NC(=O)[C@H](C)NC(=O)C(C)(C)NC(=O)[C@H](CCC(N)=O)NC(=O)[C@H](C)NC(=O)[C@H](CCCCNC(=O)COCCOCCNC(=O)COCCOCCNC(=O)CC[C@H](NC(=O)CCCCCCCCCCCCCCCCC(=O)O)C(=O)O)NC(=O)[C@H](CCCCN)NC(=O)[C@H](CC(=O)O)NC(=O)[C@H](CC(C)C)NC(=O)[C@H](CC(C)C)NC(=O)[C@@H](NC(=O)[C@H](CO)NC(=O)[C@H](Cc1ccc(O)cc1)NC(=O)[C@H](CC(=O)O)NC(=O)[C@H](CO)NC(=O)[C@@H](NC(=O)[C@H](Cc1ccccc1)NC(=O)[C@@H](NC(=O)CNC(=O)[C@H](CCC(=O)O)NC(=O)C(C)(C)NC(=O)[C@@H](N)Cc1ccc(O)cc1)[C@@H](C)O)[C@@H](C)O)[C@@H](C)CC)C(C)C)C(=O)N[C@@H](CCC(=O)O)C(=O)NCC(=O)NCC(=O)N1CCC[C@H]1C(=O)N[C@@H](CO)C(=O)N[C@@H](CO)C(=O)NCC(N)=O
# B15: Example 299 (peptide)
# peptide: Y[Aib]EGTFTSDYSILLDKK([AEEA-AEEA-γGlu-C18 diacid])AQ[Aib]AFLEYLIEGGPSSG-NH2
# modifications: N-terminus assumed
# SMILES: CC[C@H](C)[C@H](NC(=O)[C@H](CC(C)C)NC(=O)[C@H](Cc1ccc(O)cc1)NC(=O)[C@H](CCC(=O)O)NC(=O)[C@H](CC(C)C)NC(=O)[C@H](Cc1ccccc1)NC(=O)[C@H](C)NC(=O)C(C)(C)NC(=O)[C@H](CCC(N)=O)NC(=O)[C@H](C)NC(=O)[C@H](CCCCNC(=O)COCCOCCNC(=O)COCCOCCNC(=O)CC[C@H](NC(=O)CCCCCCCCCCCCCCCCC(=O)O)C(=O)O)NC(=O)[C@H](CCCCN)NC(=O)[C@H](CC(=O)O)NC(=O)[C@H](CC(C)C)NC(=O)[C@H](CC(C)C)NC(=O)[C@@H](NC(=O)[C@H](CO)NC(=O)[C@H](Cc1ccc(O)cc1)NC(=O)[C@H](CC(=O)O)NC(=O)[C@H](CO)NC(=O)[C@@H](NC(=O)[C@H](Cc1ccccc1)NC(=O)[C@@H](NC(=O)CNC(=O)[C@H](CCC(=O)O)NC(=O)C(C)(C)NC(=O)[C@@H](N)Cc1ccc(O)cc1)[C@@H](C)O)[C@@H](C)O)[C@@H](C)CC)C(=O)N[C@@H](CCC(=O)O)C(=O)NCC(=O)NCC(=O)N1CCC[C@H]1C(=O)N[C@@H](CO)C(=O)N[C@@H](CO)C(=O)NCC(N)=O
# Legend:
# human GIP receptor = biological target: T1, human GIP receptor; test: [125I]-GIP competition SPA, hGIPR membranes
# Method: The binding buffer contains 25 mM HEPES, pH 7.4, 2.5 mM CaCl₂, 1 mM MgCl₂, 0.1% (w/v) bacitracin, 0.003% (w/v) TWEEN®-20, and Roche Complete™ Protease Inhibitors without EDTA. […] Plates are sealed and mixed on a plate shaker (setting 6) for 1 minute and read with a PerkinElmer Trilux MicroBeta® scintillation counter after 2.5 to 12 hours of incubation/settling time at room temperature.
# (§1) Data are analyzed using four-parameter (curve maximum, curve minimum, IC₅₀, Hill slope) nonlinear regression routines (Genedata Screener, version 12.0.4, Genedata AG, Basal, Switzerland). […] Values for Kᵢ are reported as the geometric mean, with error expressed as the standard error of the mean (SEM) and n is equal to the number of independent replicates (determined in assays performed on different days). Geometric Means are calculated as follows: […]
# human GLP-1 receptor = biological target: T2, human GLP-1 receptor (human, UniProt P43220 24-463); test: [125I]-GLP-1 competition SPA, hGLP-1R membranes
# T2 construct: whole, on cells; also called hGLP-1R; hGLP1R
# Method: The binding buffer contains 25 mM HEPES, pH 7.4, 2.5 mM CaCl₂, 1 mM MgCl₂, 0.1% (w/v) bacitracin, 0.003% (w/v) TWEEN®-20, and Roche Complete™ Protease Inhibitors without EDTA.
# as §1
Binder,Ki (human GIP receptor) [nM],Ki (human GLP-1 receptor) [nM]
B1,2.47,36.2
B2,0.0544,5.62
B3,0.0445,5.99
B4,0.0563,10.9
B5,0.0581,7.65
B6,0.131,1.04
B7,0.0509,0.812
B8,–,4.39
B9,0.0397,2.4
B10,0.0394,2.35
B11,0.138,2.57
B12,0.0814,3.98
B13,0.117,8.27
B14,0.0578,3.03
B15,0.734,54.3
